# Assay results as given in paper PMC7455559.
# Molecular target: connexin-50 (native, sheep lens) (sheep) (UniProt P55917)
# Assay: cryo-EM structure; native Cx46/50 intercellular channels from sheep lens in a pair of MSP1E1/DMPC nanodiscs; 20 mM HEPES pH 7.4, 150 mM NaCl; single-particle reconstruction with D6 symmetry, 1.90 Å (2.3 Å without symmetry); the two isoforms could not be told apart by image classification
substance,measurement,value
"connexin-46 (native, sheep lens) (from UniProt Q9TU17 1-413) (natural protein)",subunits in the intercellular channel (Cx46 and Cx50 together),12
